This is an account of results in PMC9242855.

The assay deals with CMGE (Cdc45–MCM–GINS–Pol ε) (S. cerevisiae) (UniProt P29469). The experiment in a line: negative-stain electron microscopy (2D averages, ReconSil); full CMG assembly reaction on nucleosome-flanked ARS1 origin DNA; DDK-phosphorylated double hexamers incubated with CDK, Dpb11, GINS, Cdc45, Pol ε, Sld3–Sld7, Sld2 and 5 mM ATP, 30 min at 30 °C.

In the case of “CMGE (Cdc45–MCM–GINS–Pol ε) (from UniProt P29469 1-868; P24279 1-971; P30665 1-933; P29496 1-775; P53091 1-1017; P38132 1-845; Q08032 1-650; Q03406 1-294; Q12146 1-194; P21951 1-2222; P24482 1-689) (complex)”, the percent of CMG particles that are dimers (dCMGE, cis configuration) came out at 11% and the percent of CMG particles that are dimers (dCMGE, trans configuration) was determined as 70%.
